Read-outs that look alike come from different tables or passages of the source.
What was measured:
[1] = biological target: T1, JEV strain SA14-14-2 envelope (E) protein on virions (Japanese encephalitis virus strain …, UniProt P0DOH7 295-794); test: cell-based or functional assay
[2] = biological target: T1, JEV strain SA14-14-2 envelope (E) …; test: cell-based or functional assay; remark: listed apart in the source
[3] = biological target: E protein of wild type JEV strain JE 1991 (genotype I) (Japanese encephalitis virus strain JE …); test: cell-based or functional assay
[4] = biological target: E protein of wild type JEV strain JE B1034/8 (genotype II) (Japanese encephalitis virus strain JE …); test: cell-based or functional assay
[5] = biological target: E protein of wild type JEV strain Beijing (genotype III) (Japanese encephalitis virus strain …); test: cell-based or functional assay
[6] = biological target: E protein of wild type JEV strain JKT 9092 (genotype IV) (Japanese encephalitis virus strain JKT …); test: cell-based or functional assay
[7] = biological target: T1, JEV strain SA14-14-2 envelope (E) …; test: cell-based or functional assay; remark: listed apart in the source
[8] = biological target: T1, JEV strain SA14-14-2 envelope (E) …
[9] = biological target: T1, JEV strain SA14-14-2 envelope (E) …; test: cell-based or functional assay; remark: listed apart in the source
[10] = biological target: T2, recombinant JEV N-terminal 80% E protein (Japanese encephalitis virus strain …, UniProt P0DOH7 295-692); test: SPR, recombinant E immobilized
[11] = biological target: T1, JEV strain SA14-14-2 envelope (E) …; test: ELISA on JEV virions, half maximum binding (FIG. 4A)
[12] = biological target: T1, JEV strain SA14-14-2 envelope (E) …; test: ELISA, virion-coated plate; initial Fab ~100 µg/ml
[13] = biological target: T1, JEV strain SA14-14-2 envelope (E) …; test: ELISA on JEV SA14-14-2 virions captured with HMAF
[14] = biological target: T2, recombinant JEV N-terminal 80% E protein; test: SPR (Biacore 3000), recombinant E immobilized, Fab in solution
[15] = biological target: T1, JEV strain SA14-14-2 envelope (E) …; test: ELISA on JEV virions captured with HMAF, half-maximal binding, Fab
[16] = biological target: T1, JEV strain SA14-14-2 envelope (E) …; remark: listed apart in the source
[17] = biological target: T1, JEV strain SA14-14-2 envelope (E) …; remark: listed apart in the source
[18] = biological target: T1, JEV strain SA14-14-2 envelope (E) …; test: ELISA on JEV virions captured with HMAF, half-maximal binding, MAb

B1: humanized MAb B2 (antibody, V domains shown)
VH: VQLLEQSGSEVKKPGASVKVSCKASGYPFTDYAMSWVRQAPGQGLEYMGWIFTNSGNPTYAPGFAGRFVFSLDISVNTAYLHIDSLKPEDTAVYYCARGIVTPAASGDYFDSWGQGTLVTVSS
VL: ELVLTQSPSSLSASIGDRVTITCRASQHISSWLAWYQQKPGKAPKPLIYAASSLKSGVPSRFSGSGSGTDFTLTISGLQPEDFATYYCQQYENSPVTFGGGTKVEIKR
occupancy of accessible antibody sites on the virion for neutralization [1]: ~28%
PRNT50 titer [2]: 0.03 nM
PRNT50 titer [3]: 0.02 nM
PRNT50 titer [4]: 0.02 nM
PRNT50 titer [5]: 0.02 nM
PRNT50 titer [6]: 2 nM
PRNT50 [7]: 0.005 µg/mL

B2: Fab B2 (Fab, V domains shown)
VH: VQLLEQSGSEVKKPGASVKVSCKASGYPFTDYAMSWVRQAPGQGLEYMGWIFTNSGNPTYAPGFAGRFVFSLDISVNTAYLHIDSLKPEDTAVYYCARGIVTPAASGDYFDSWGQGTLVTVSS
VL: ELVLTQSPSSLSASIGDRVTITCRASQHISSWLAWYQQKPGKAPKPLIYAASSLKSGVPSRFSGSGSGTDFTLTISGLQPEDFATYYCQQYENSPVTFGGGTKVEIKR
IC50 (read off the curve) [8]: ~5000 pM
PRNT50 titer [9]: 0.25 nM
fold faster off-rate than Fab A3 or E3 [10]: ≥ 120 fold
fold weaker Kd than Fab A3 or E3 [10]: ≥ 150 fold
EC50 [11]: 280 pM
ELISA titer (1/log10 dilution) [12]: 4.2 log10 reciprocal dilution
EC50 (read off the curve) [13]: ~200 pM
Kd [14]: 110000 pM
koff [14]: 0.0046 s⁻¹
kon [14]: 42000 M⁻¹ s⁻¹
Kd [15]: 280 pM

B3: Fab A3 (Fab, V domains shown)
VH: EVQLLESGAEVKKPGSSVRISCKVSGTPYSSYVMNWVRQAPGQGLEWMGVFVPSLDRALYAQNFQGRLSITADTTTTYMELTSLKFEDTAVYYCATDFSVGWLRPLDRWGQGTLVTVSS
VL: ELQMTQSPSSLSASVGDRVTITCRASQGISNYLAWYQQKPGKAPKLLIYYASRLESGVPSRFSGSGSGTDYTLTISSLQPEDFATYYCQQYNSNPFTFGPGTKVDIKR
IC50 (read off the curve) [16]: ~6000 pM
PRNT50 titer [9]: 2.55 nM
EC50 [11]: 450 pM
ELISA titer (1/log10 dilution) [12]: 4.7 log10 reciprocal dilution
EC50 (read off the curve) [13]: ~500 pM
Kd [14]: 720 pM
koff [14]: 2.8e-05 s⁻¹
kon [14]: 40000 M⁻¹ s⁻¹
Kd [15]: 450 pM

B4: humanized MAb A3 (antibody, V domains shown)
VH: EVQLLESGAEVKKPGSSVRISCKVSGTPYSSYVMNWVRQAPGQGLEWMGVFVPSLDRALYAQNFQGRLSITADTTTTYMELTSLKFEDTAVYYCATDFSVGWLRPLDRWGQGTLVTVSS
VL: ELQMTQSPSSLSASVGDRVTITCRASQGISNYLAWYQQKPGKAPKLLIYYASRLESGVPSRFSGSGSGTDYTLTISSLQPEDFATYYCQQYNSNPFTFGPGTKVDIKR
occupancy of accessible antibody sites on the virion for neutralization [1]: 45%
PRNT50 titer [2]: 0.2 nM
PRNT50 titer [3]: 0.04 nM
PRNT50 titer [4]: 0.04 nM
PRNT50 titer [5]: 0.2 nM
PRNT50 titer [6]: 0.07 nM
PRNT50 [7]: 0.04 µg/mL

B5: Fab E3 (Fab, V domains shown)
VH: EVQLLESGPGLVRPSQTLSLTCAVSGASISGPLSYWTWIRQSPGKKMEHIGSMFYSGNTYYNPSLKGRITMSVDTSRNQFSLNLNSVTVADTAVYFCARRRETELFGLPIDYWGQGILVTVSS
VL: ELTQSPATLSVSPGERATLSCRASERISSSYLSWYQQKPGQAPRLLMYGTSTRATGIPARFSGSGSGTDFTLTISSLQPEDFAVYFCQQDYNLPWTFGQGTKLEIKR
IC50 (read off the curve) [17]: ~7000 pM
PRNT50 titer [9]: 84.9 nM
EC50 [11]: 980 pM
ELISA titer (1/log10 dilution) [12]: 4.2 log10 reciprocal dilution
EC50 (read off the curve) [13]: ~1000 pM
Kd [14]: 350 pM
koff [14]: 3.6e-05 s⁻¹
kon [14]: 100000 M⁻¹ s⁻¹
Kd [15]: 980 pM

B6: humanized MAb E3 (antibody, V domains shown)
VH: EVQLLESGPGLVRPSQTLSLTCAVSGASISGPLSYWTWIRQSPGKKMEHIGSMFYSGNTYYNPSLKGRITMSVDTSRNQFSLNLNSVTVADTAVYFCARRRETELFGLPIDYWGQGILVTVSS
VL: ELTQSPATLSVSPGERATLSCRASERISSSYLSWYQQKPGQAPRLLMYGTSTRATGIPARFSGSGSGTDFTLTISSLQPEDFAVYFCQQDYNLPWTFGQGTKLEIKR
occupancy of accessible antibody sites on the virion for neutralization [1]: 66%
PRNT50 titer [2]: 0.93 nM
PRNT50 titer [3]: 0.21 nM
PRNT50 titer [4]: 0.14 nM
PRNT50 titer [5]: 0.71 nM
PRNT50 titer [6]: 0.36 nM
PRNT50 [7]: 0.09 µg/mL
Kd [18]: 310 pM
